Experimental data published in publication PMC3585358, “Identification and Multidimensional Optimization of an Asymmetric Bispecific IgG Antibody Mimicking the Function of Factor VIII Cofactor Activity” (PLoS ONE, 2013).

Assays:
human factor IXa = biological target: T1, human factor IXa (Homo sapiens, UniProt P00740); assay: SPR; Biacore T200; anti-FIXa or anti-FX monospecific antibodies captured on MabSelect SuRe Ligand (recombinant Protein A) immobilized on a CM4 chip; natalizumab (human IgG4) on the reference cell; 0, 80, 160, 320, 640 or 1,280 nM human FIXa or FX injected at 30 uL/min; 10 mM HEPES pH 7.4, 150 mM NaCl, 0.05% surfactant P20, 2.5 mM CaCl2; settings: both partners purified
T1 construct: also called FIXa; source: bought: Enzyme Research Laboratories (purified human coagulation factors; the source is stated for the enzymatic assay)
T1 sequence (P00740 47-191, chain 1 of 2): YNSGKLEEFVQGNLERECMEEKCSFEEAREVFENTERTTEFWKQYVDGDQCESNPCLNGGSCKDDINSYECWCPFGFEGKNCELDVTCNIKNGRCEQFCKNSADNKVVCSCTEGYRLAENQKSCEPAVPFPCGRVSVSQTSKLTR
T1 sequence (P00740 227-461, chain 2 of 2): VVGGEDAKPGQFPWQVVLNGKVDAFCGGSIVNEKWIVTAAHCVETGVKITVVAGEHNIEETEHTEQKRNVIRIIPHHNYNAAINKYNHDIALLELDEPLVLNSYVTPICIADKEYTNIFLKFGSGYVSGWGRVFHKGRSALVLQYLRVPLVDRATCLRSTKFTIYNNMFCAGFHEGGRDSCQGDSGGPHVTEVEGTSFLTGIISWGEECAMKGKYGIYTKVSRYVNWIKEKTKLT

human factor X = biological target: T2, human factor X (Homo sapiens, UniProt P00742); assay: as above; settings: both partners purified
T2 construct: human coagulation factor X (zymogen), light chain; also called FX; source: bought: Enzyme Research Laboratories (purified human coagulation factors; the source is stated for the enzymatic assay)
T2 sequence (P00742 41-179, chain 1 of 2): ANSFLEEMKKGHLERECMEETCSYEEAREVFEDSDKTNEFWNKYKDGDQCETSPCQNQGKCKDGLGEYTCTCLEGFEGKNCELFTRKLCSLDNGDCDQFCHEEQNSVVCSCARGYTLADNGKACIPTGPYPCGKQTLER
T2 sequence (P00742 183-488, chain 2 of 2): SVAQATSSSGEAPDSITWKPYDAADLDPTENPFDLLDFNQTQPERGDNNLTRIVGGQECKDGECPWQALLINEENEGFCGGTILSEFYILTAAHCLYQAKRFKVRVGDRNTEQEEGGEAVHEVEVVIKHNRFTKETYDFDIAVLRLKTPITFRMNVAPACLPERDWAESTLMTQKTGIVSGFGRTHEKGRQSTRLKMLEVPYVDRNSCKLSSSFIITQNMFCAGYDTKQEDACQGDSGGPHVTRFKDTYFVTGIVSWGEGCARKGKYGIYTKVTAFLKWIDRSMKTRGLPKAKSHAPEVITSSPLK

| binding result (human factor IXa) | binding result (human factor X) | Binder |
| --- | --- | --- |
| binds | – | anti-FIXa monospecific IgG of hBS910 (anti-FIXa heavy chain and common light chain) (antibody, V domains shown, as the anti-FIXa heavy chain of m1; as the common light chain of m1; The SPR methods say that monospecific antibodies were captured; also called monospecific anti-FIXa antibody; anti-FIXa homodimeric antibody; source: HEK293 cells, transfected; filtrated culture supernatants or Protein A purified antibodies; copies: 2 + 2) VH: QVQLVESGGGLVQPGGSLRLSCAASGFTFSYYDIQWVRQAPGKGLEWVSSISPSGQSTYYRREVKGRFTISRDNSKNTLYLQMNSLRAEDTAVYYCARRTGREYGGGWYFDYWGQGTLVTVSS VL: DIQMTQSPSSLSASVGDRVTITCKASRNIERQLAWYQQKPGQAPELLIYQASRKESGVPDRFSGSRYGTDFTLTISSLQPEDIATYYCQQYSDPPLTFGGGTKVEIK |
| – | binds | anti-FX monospecific IgG of hBS910 (anti-FX heavy chain and common light chain) (antibody, V domains shown, as the anti-FX heavy chain of m1; as the common light chain of m1; The SPR methods say that monospecific antibodies were captured; also called monospecific anti-FX antibody; anti-FX homodimeric antibody; source: HEK293 cells, transfected; filtrated culture supernatants or Protein A purified antibodies; copies: 2 + 2) VH: QVQLVQSGSELKKPGASVKVSCKASGYTFTDNNMDWVRQAPGQGLEWMGDINTRSGGSIYNEEFQDRVIMTVDKSTDTAYMELSSLRSEDTATYHCARRKSYGYYLDEWGEGTLVTVSS VL: DIQMTQSPSSLSASVGDRVTITCKASRNIERQLAWYQQKPGQAPELLIYQASRKESGVPDRFSGSRYGTDFTLTISSLQPEDIATYYCQQYSDPPLTFGGGTKVEIK |
